In the supplement of paper PMC9112550, “Optimization of the antimicrobial peptide Bac7 by deep mutational scanning” (BMC Biology, 2022):

System: Escherichia coli TOP10
Assay: shrunken log2 fold change of peptide-encoding DNA abundance (4.5 h post-induction vs induction); higher = less antimicrobial activity (less host growth inhibition)
Conditions: time post-induction: 4.5 h; library: site-saturation at positions 5, 18, 19, 20
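Further: peptides expressed intracellularly from a pBAD plasmid library in pooled LB shake-flask culture, induced with 0.3% L-arabinose, DNA abundance read by NGS, three biological replicates, DESeq2 with apeglm shrinkage.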

RRIRHRPPRLPRPRPRPYWIPRP
shrunken log2 fold change: -0.124

RRIRTRPPRLPRPRPRPPLTPRP
shrunken log2 fold change: 0.13

RRIRFRPPRLPRPRPRPALFPRP
shrunken log2 fold change: 0.173

RRIRARPPRLPRPRPRPTVPPRP
shrunken log2 fold change: 0.56

RRIRGRPPRLPRPRPRPCLIPRP
shrunken log2 fold change: -0.183

RRIRSRPPRLPRPRPRPFCKPRP
shrunken log2 fold change: -0.449

RRIRRRPPRLPRPRPRPERAPRP
shrunken log2 fold change: 0.79

RRIRQRPPRLPRPRPRPDIWPRP
shrunken log2 fold change: -0.214

RRIRGRPPRLPRPRPRPVVGPRP
shrunken log2 fold change: 0.735

RRIRHRPPRLPRPRPRPDEIPRP
shrunken log2 fold change: -0.137

RRIRARPPRLPRPRPRPVRRPRP
shrunken log2 fold change: 0.723

RRIRFRPPRLPRPRPRPTHEPRP
shrunken log2 fold change: 0.171

RRIRKRPPRLPRPRPRPDRLPRP
shrunken log2 fold change: -0.038

RRIRARPPRLPRPRPRPFEHPRP
shrunken log2 fold change: 0.172

RRIRQRPPRLPRPRPRPNAIPRP
shrunken log2 fold change: -0.393

RRIRWRPPRLPRPRPRPYDTPRP
shrunken log2 fold change: -0.495

RRIRARPPRLPRPRPRPATKPRP
shrunken log2 fold change: 0.531

RRIRGRPPRLPRPRPRPPMCPRP
shrunken log2 fold change: 0.525

RRIRFRPPRLPRPRPRPNELPRP
shrunken log2 fold change: -0.0316

RRIRRRPPRLPRPRPRPVQEPRP
shrunken log2 fold change: -0.00475

RRIRFRPPRLPRPRPRPRTCPRP
shrunken log2 fold change: -0.0542

RRIRDRPPRLPRPRPRPVMRPRP
shrunken log2 fold change: 0.592

RRIRCRPPRLPRPRPRPSNKPRP
shrunken log2 fold change: -0.44

RRIRGRPPRLPRPRPRPVYGPRP
shrunken log2 fold change: 0.0598

RRIRIRPPRLPRPRPRPFMNPRP
shrunken log2 fold change: -0.16

RRIRYRPPRLPRPRPRPYFKPRP
shrunken log2 fold change: -1.83

RRIRFRPPRLPRPRPRPKENPRP
shrunken log2 fold change: -0.222

RRIRWRPPRLPRPRPRPKGFPRP
shrunken log2 fold change: 0.437

RRIRIRPPRLPRPRPRPKKQPRP
shrunken log2 fold change: -0.194

RRIRDRPPRLPRPRPRPYGFPRP
shrunken log2 fold change: -0.0405

RRIRGRPPRLPRPRPRPHVCPRP
shrunken log2 fold change: 0.359

RRIRRRPPRLPRPRPRPNAHPRP
shrunken log2 fold change: 0.0582

RRIRNRPPRLPRPRPRPDACPRP
shrunken log2 fold change: -0.0102

RRIRARPPRLPRPRPRPNAPPRP
shrunken log2 fold change: 0.467

RRIRDRPPRLPRPRPRPHWYPRP
shrunken log2 fold change: -0.212

RRIRDRPPRLPRPRPRPVYDPRP
shrunken log2 fold change: -0.434

RRIRYRPPRLPRPRPRPWCDPRP
shrunken log2 fold change: -0.733

RRIRSRPPRLPRPRPRPVTWPRP
shrunken log2 fold change: 0.0066

RRIRCRPPRLPRPRPRPWMQPRP
shrunken log2 fold change: -0.0437

RRIRERPPRLPRPRPRPSTVPRP
shrunken log2 fold change: -0.0579

RRIRARPPRLPRPRPRPGPGPRP
shrunken log2 fold change: 1.08

RRIRQRPPRLPRPRPRPQDRPRP
shrunken log2 fold change: -0.254

RRIRDRPPRLPRPRPRPVGNPRP
shrunken log2 fold change: 0.114

RRIRMRPPRLPRPRPRPLTGPRP
shrunken log2 fold change: 0.0753

RRIRARPPRLPRPRPRPQYRPRP
shrunken log2 fold change: -0.208

RRIRARPPRLPRPRPRPNCEPRP
shrunken log2 fold change: 0.186

RRIRHRPPRLPRPRPRPRPNPRP
shrunken log2 fold change: 0.321

RRIRVRPPRLPRPRPRPFDVPRP
shrunken log2 fold change: -0.0208

RRIRCRPPRLPRPRPRPKYHPRP
shrunken log2 fold change: -0.743

RRIRTRPPRLPRPRPRPYHDPRP
shrunken log2 fold change: -0.13

RRIRCRPPRLPRPRPRPMFQPRP
shrunken log2 fold change: -0.151

RRIRNRPPRLPRPRPRPAVSPRP
shrunken log2 fold change: -0.203

RRIRIRPPRLPRPRPRPKPLPRP
shrunken log2 fold change: -0.191

RRIRNRPPRLPRPRPRPLKWPRP
shrunken log2 fold change: 0.0542

RRIRFRPPRLPRPRPRPGNSPRP
shrunken log2 fold change: 0.00114

RRIRRRPPRLPRPRPRPADPPRP
shrunken log2 fold change: 0.403

RRIRYRPPRLPRPRPRPARAPRP
shrunken log2 fold change: 0.524

RRIRERPPRLPRPRPRPTYHPRP
shrunken log2 fold change: -0.407

RRIRRRPPRLPRPRPRPNVVPRP
shrunken log2 fold change: 0.0745

RRIRCRPPRLPRPRPRPEWNPRP
shrunken log2 fold change: 0.202

RRIRSRPPRLPRPRPRPSVDPRP
shrunken log2 fold change: 0.0566

RRIRPRPPRLPRPRPRPMCPPRP
shrunken log2 fold change: -0.267

RRIRMRPPRLPRPRPRPLDLPRP
shrunken log2 fold change: 0.062

RRIRGRPPRLPRPRPRPKARPRP
shrunken log2 fold change: 0.208

RRIRQRPPRLPRPRPRPPKAPRP
shrunken log2 fold change: -0.058

RRIRPRPPRLPRPRPRPGKRPRP
shrunken log2 fold change: 0.389

RRIRKRPPRLPRPRPRPVEVPRP
shrunken log2 fold change: 0.0844

RRIRTRPPRLPRPRPRPKTNPRP
shrunken log2 fold change: -0.157

RRIRARPPRLPRPRPRPRDQPRP
shrunken log2 fold change: 0.499

RRIRDRPPRLPRPRPRPQQGPRP
shrunken log2 fold change: -0.00207

RRIRERPPRLPRPRPRPVKSPRP
shrunken log2 fold change: -0.155

RRIRVRPPRLPRPRPRPHDVPRP
shrunken log2 fold change: -0.116

RRIRTRPPRLPRPRPRPHCDPRP
shrunken log2 fold change: -0.0828

RRIRERPPRLPRPRPRPNKWPRP
shrunken log2 fold change: -0.576

RRIRHRPPRLPRPRPRPSLTPRP
shrunken log2 fold change: 0.0616

RRIRWRPPRLPRPRPRPLACPRP
shrunken log2 fold change: 0.206

RRIRKRPPRLPRPRPRPFLQPRP
shrunken log2 fold change: -0.0765

RRIRERPPRLPRPRPRPTAWPRP
shrunken log2 fold change: 0.378

RRIRMRPPRLPRPRPRPGSAPRP
shrunken log2 fold change: 1.4

RRIRGRPPRLPRPRPRPWTNPRP
shrunken log2 fold change: 0.0419

RRIRGRPPRLPRPRPRPCFCPRP
shrunken log2 fold change: 0.609

RRIRKRPPRLPRPRPRPIMVPRP
shrunken log2 fold change: 0.248

RRIRTRPPRLPRPRPRPYSLPRP
shrunken log2 fold change: -0.186

RRIRIRPPRLPRPRPRPGPWPRP
shrunken log2 fold change: 0.0988

RRIRGRPPRLPRPRPRPWGVPRP
shrunken log2 fold change: 0.287

RRIRVRPPRLPRPRPRPVSCPRP
shrunken log2 fold change: 0.182

RRIRGRPPRLPRPRPRPGHCPRP
shrunken log2 fold change: 0.4

RRIRRRPPRLPRPRPRPSAQPRP
shrunken log2 fold change: 0.234

RRIRGRPPRLPRPRPRPHGRPRP
shrunken log2 fold change: 0.182

RRIRYRPPRLPRPRPRPVIPPRP
shrunken log2 fold change: -0.0128

RRIRYRPPRLPRPRPRPVMEPRP
shrunken log2 fold change: -0.0459

RRIRYRPPRLPRPRPRPSNIPRP
shrunken log2 fold change: -1.25

RRIRPRPPRLPRPRPRPGHKPRP
shrunken log2 fold change: -0.287

RRIRMRPPRLPRPRPRPPDYPRP
shrunken log2 fold change: 0.345

RRIRTRPPRLPRPRPRPCNSPRP
shrunken log2 fold change: -0.0206

RRIRSRPPRLPRPRPRPLMCPRP
shrunken log2 fold change: -0.471

RRIRQRPPRLPRPRPRPFQFPRP
shrunken log2 fold change: -0.252

RRIRKRPPRLPRPRPRPRQRPRP
shrunken log2 fold change: 1.57

RRIRVRPPRLPRPRPRPNCWPRP
shrunken log2 fold change: 0.0329

RRIRIRPPRLPRPRPRPQMQPRP
shrunken log2 fold change: -0.325

RRIRLRPPRLPRPRPRPMMYPRP
shrunken log2 fold change: -0.0922

RRIRGRPPRLPRPRPRPVPMPRP
shrunken log2 fold change: 1.17

RRIRGRPPRLPRPRPRPPRFPRP
shrunken log2 fold change: 1.04

RRIRQRPPRLPRPRPRPLNLPRP
shrunken log2 fold change: -0.249

RRIRDRPPRLPRPRPRPDICPRP
shrunken log2 fold change: -0.0418

RRIRHRPPRLPRPRPRPSFIPRP
shrunken log2 fold change: -0.619

RRIRHRPPRLPRPRPRPKHRPRP
shrunken log2 fold change: 0.376

RRIRKRPPRLPRPRPRPKWDPRP
shrunken log2 fold change: 0.361

RRIRHRPPRLPRPRPRPMQQPRP
shrunken log2 fold change: -0.174

RRIRCRPPRLPRPRPRPWGFPRP
shrunken log2 fold change: 0.248

RRIRCRPPRLPRPRPRPHMSPRP
shrunken log2 fold change: -0.193

RRIRIRPPRLPRPRPRPCWNPRP
shrunken log2 fold change: -0.301

RRIRERPPRLPRPRPRPTIPPRP
shrunken log2 fold change: -0.475

RRIRMRPPRLPRPRPRPPYVPRP
shrunken log2 fold change: -0.0137

RRIRKRPPRLPRPRPRPEQEPRP
shrunken log2 fold change: 0.408

RRIRTRPPRLPRPRPRPNWPPRP
shrunken log2 fold change: -0.0423

RRIRYRPPRLPRPRPRPSQRPRP
shrunken log2 fold change: -0.0178

RRIRARPPRLPRPRPRPQARPRP
shrunken log2 fold change: 0.233

RRIRPRPPRLPRPRPRPEKDPRP
shrunken log2 fold change: -0.0428

RRIRQRPPRLPRPRPRPPKSPRP
shrunken log2 fold change: 0.18

RRIRVRPPRLPRPRPRPVINPRP
shrunken log2 fold change: -0.712

RRIRNRPPRLPRPRPRPGRQPRP
shrunken log2 fold change: 0.0171

RRIRMRPPRLPRPRPRPIRWPRP
shrunken log2 fold change: 0.632

RRIRNRPPRLPRPRPRPWFKPRP
shrunken log2 fold change: -0.191

RRIRQRPPRLPRPRPRPIWVPRP
shrunken log2 fold change: -0.344
